Reference: article PMC5177622, “Multivalent Histone and DNA Engagement by a PHD/BRD/PWWP Triple Reader Cassette Recruits ZMYND8 to K14ac-Rich Chromatin” (Cell Reports, 2016)

Molecular target: Histone H3 acetylated at K14 (endogenous, HEK293), P68431
Experiment: anti-FLAG immunoprecipitation and western blot, quantified
Conditions: chain shown with the change; HEK293 cells transiently transfected; three biological replicates; anti-H3K14ac blot; parent: est. 1.0; read off a plot

ratio to parent: 0.19
B1: 3×FLAG-ZMYND8 full length, wild type, Q9ULU4-13 N228F (protein)
chain: MDISTRSKDPGSAERTAQKRKFPSPPHSSNGHSPQDTSTSPIKKKKKPGLLNSNNKEQSELRHGPFYYMKQPLTTDPVDVVPQDGRNDFYCWVCHREGQVLCCELCPRVYHAKCLRLTSEPEGDWFCPECEKITVAECIETQSKAMTMLTIEQLSYLLKFAIQKMKQPGTDAFQKPVPLEQHPDYAEYIFHPMDLCTLEKNAKKKMYGCTEAFLADAKWILHNCIIYFGGNHKLTQIAKVVIKICEHEMNEIEVCPECYLAACQKRDNWFCEPCSNPHPLVWAKLKGFPFWPAKALRDKDGQVDARFFGQHDRAWVPINNCYLMSKEIPFSVKKTKSIFNSAMQEMEVYVENIRRKFGVFNYSPFRTPYTPNSQYQMLLDPTNPSAGTAKIDKQEKVKLNFDMTASPKILMSKPVLSGGTGRRISLSDMPRSPMSTNSSVHTGSDVEQDAEKKATSSHFSASEESMDFLDKSTASPASTKTGQAGSLSGSPKPFSPQLSAPITTKTDKTSTTGSILNLNLDRSKAEMDLKELSESVQQQSTPVPLISPKRQIRSRFQLNLDKTIESCKAQLGINEISEDVYTAVEHSDSEDSEKSDSSDSEYISDDEQKSKNEPEDTEDKEGCQMDKEPSAVKKKPKPTNPVEIKEELKSTSPASEKADPGAVKDKASPEPEKDFSEKAKPSPHPIKDKLKGKDETDSPTVHLGLDSDSESELVIDLGEDHSGREGRKNKKEPKEPSPKQDVVGKTPPSTTVGSHSPPETPVLTRSSAQTSAAGATATTSTSSTVTVTAPAPAATGSPVKKQRPLLPKETAPAVQRVVWNSSSKFQTSSQKWHMQKMQRQQQQQQQQNQQQQPQSSQGTRYQTRQAVKAVQQKEITQSPSTSTITLVTSTQSSPLVTSSGSMSTLVSSVNADLPIATASADVAADIAKYTSKMMDAIKGTMTEIYNDLSKNTTGSTIAEIRRLRIEIEKLQWLHQQELSEMKHNLELTMAEMRQSLEQERDRLIAEVKKQLELEKQQAVDETKKKQWCANCKKEAIFYCCWNTSYCDYPCQQAHWPEHMKSCTQSATAPQQEADAEVNTETLNKSSQGSSSSTQSAPSETASASKEKETSAEKSKESGSTLDLSGSRETPSSILLGSNQGSDHSRSNKSSWSSSDEKRGSTRSDHNTSTSTKSLLPKESRLDTFWD
